Laboratory results as given in paper PMC8670446 (2021).

Target: Ssa1 (S. cerevisiae, UniProt P10591 1-642)
Assay: BLI; apparent KD from equilibrium levels; His6-SUMO-Ssa1 immobilized

Sequence of Ssa1 (P10591 whole entry): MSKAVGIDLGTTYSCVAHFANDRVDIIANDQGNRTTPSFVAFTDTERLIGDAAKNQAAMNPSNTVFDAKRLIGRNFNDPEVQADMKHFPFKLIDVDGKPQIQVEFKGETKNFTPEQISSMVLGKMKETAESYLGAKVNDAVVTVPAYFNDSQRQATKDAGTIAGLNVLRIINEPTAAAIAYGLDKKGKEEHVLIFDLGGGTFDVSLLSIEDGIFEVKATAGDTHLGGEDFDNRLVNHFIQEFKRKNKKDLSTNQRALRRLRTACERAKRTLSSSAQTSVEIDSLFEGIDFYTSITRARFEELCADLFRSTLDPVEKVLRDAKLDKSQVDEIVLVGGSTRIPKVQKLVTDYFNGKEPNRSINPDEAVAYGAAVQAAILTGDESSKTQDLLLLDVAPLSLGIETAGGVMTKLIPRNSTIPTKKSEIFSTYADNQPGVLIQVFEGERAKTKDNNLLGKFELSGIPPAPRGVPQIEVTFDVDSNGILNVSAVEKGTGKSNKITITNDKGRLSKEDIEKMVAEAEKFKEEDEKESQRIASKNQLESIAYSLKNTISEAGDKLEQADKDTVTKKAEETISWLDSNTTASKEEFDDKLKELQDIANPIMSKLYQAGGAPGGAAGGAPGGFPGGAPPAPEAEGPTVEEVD

B1: Sis1 (natural protein)
chain: MVKETKLYDLLGVSPSANEQELKKGYRKAALKYHPDKPTGDTEKFKEISEAFEILNDPQKREIYDQYGLEAARSGGPSFGPGGPGGAGGAGGFPGGAGGFSGGHAFSNEDAFNIFSQFFGGSSPFGGADDSGFSFSSYPSGGGAGMGGMPGGMGGMHGGMGGMPGGFRSASSSPTYPEEETVQVNLPVSLEDLFVGKKKSFKIGRKGPHGASEKTQIDIQLKPGWKAGTKITYKNQGDYNPQTGRRKTLQFVIQEKSHPNFKRDGDDLIYTLPLSFKESLLGFSKTIQTIDGRTLPLSRVQPVQPSQTSTYPGQGMPTPKNPSQRGNLIVKYKVDYPISLNDAQKRAIDENF
Kd: 210 nM
